Legend:
LNCaP cells = test: Cell proliferation assay (BrdU ELISA), R1881-induced proliferation; assay type: cell-based, human; conditions: LNCaP cells infected with lentivirus, 1×10^−9 M R1881, versus miRNA control (FIG. 4e)
Experimental: Experiments were performed as described^2. pLenti6-miRNA-control and pLenti6-miRNA-PKCβI were used to produce recombinant lentiviruses to infect LNCaP cells as described^15. The infected cells were cultured for 72 hours in medium containing 10% double-stripped FCS. 1×10^4 cells were plated in a 96-well plate in the presence or absence of 1×10^−9 M R1881. The cell proliferation Elisa BrdU Colorimetric Assay (Roche) was performed according to the manufacturer's instructions. […] The experiments were performed in hexaplicate.

KLK2 and FKBP5 genes = test: Quantitative RT-PCR of androgen-regulated genes in LNCaP cells; assay type: cell-based, human; conditions: miRNA-mediated knockdown (FIG. 3j)
Experimental: Quantitative RT-PCR and statistical analysis were performed as described. The primers for KLK2 and FKBP5 were described previously^6, 11.

B1: 5′-TGCTGTTACGTAGGGATCTGACAGGCGTTTTGGCCACTGACTGACGCCTGTCATCCCTACGTAA-3′ (nucleic acid)
DNA 1: TGCTGTTACGTAGGGATCTGACAGGCGTTTTGGCCACTGACTGACGCCTGTCATCCCTACGTAA
DNA 2: CCTGTTACGTAGGGATGACAGGCGTCAGTCAGTGGCCAAAACGCCTGTCAGATCCCTACGTAAC
modifications: expressed or natural sequence
B1 was tested, and the R1881-induced cell proliferation (LNCaP cells) was “severely reduces” and the “expression of the androgen-regulated KLK2 and FKBP5 genes” value (KLK2 and FKBP5 genes) was “reduces expression”.

Source: patent US20120329854A1, “Methods and Compounds for the Diagnosis and Treatment for Cancer” (UNIVERSITÄTSKLINIKUM FREIBURG, priority 2009, published 2012)
